Reference: the nanobody polyreactivity screen of Harvey et al. (2022)

Test: yeast display, Sf9 membrane polyspecificity reagent, FACS + sequencing; frameworks hold sequencing errors
In short: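 A synthetic nanobody library was expressed on Saccharomyces cerevisiae BJ5465 by galactose induction for 36–48 hours. The library was stained for 1 hour at 4 °C with 10% biotinylated, detergent-solubilized Sf9 membrane reagent and enriched with streptavidin microbeads before FACS. Low and high (top ~1%) gates were set on anti-HA fluorescence for expression and streptavidin fluorescence for reagent binding, and each polyreactivity label reflects the gate of origin.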

Which “polyreactivity (PSR sort gate)” value does the source give for “QVQLVESGGGLVQAGGSLRLSCAASGFTFQYYTKGWYRQAPGKERELVAAISARGGSTYYADSVKGRFTISRDNAKNTVYLQMNSLKPEDTAVYYCNTVGIGAWGYSYPDEDNYWGQGTQVTVSS” here?
Its value is “low polyreactivity”.

For “QVQLVESGGGLVQAGGSLRLSCAASGFTFRANGMGWSRQAPGKERELVAVITSGGTTNYADSVKGRFTISRDNAKNTVYLQMNSLKPEDTAVYYCAVPYEPTSIPERRDYYRADDYWGQGTQVTVSS”, which “polyreactivity (PSR sort gate)” value is on record?
The value was “low polyreactivity”.

Which “polyreactivity (PSR sort gate)” value does the source give for “QVQLVESGGGLVQAGGSLRLSCAASGFTFRANGMGWYRQAPGKERELVATITSGGTTNYADSVKGRLTISRDNAKNTVYLQMNSLKPEDTAVYYCNAGSVSDRQMDYWGQGTQVTVSS” here?
Its value is “low polyreactivity”.

Which “polyreactivity (PSR sort gate)” value does the source give for “QVQLVESGGGLVQAGGSLRLSCAASGFTFRAYAMGWSRQAPGKERELVAAISTGGGSTYYADSVKGRFTISRDNAKNTVYLQMNSLKPEDTAVYYCNALPQRRYYYWGQGTQVTVSS” here?
Its value is “high polyreactivity”.

With “QVQLVESGGGLVQAGGSLRLSCAASGFTFRAYVMGWDRQAPGKERELVASISKRGGNTYYADSVKGRFTISRDNAKNTVYLQMNSLKPEDTAVYYCAVDFFGDRGDYDYWGQGTQVTVSS” as the sequence, how does the “polyreactivity (PSR sort gate)” value read?
The value was “high polyreactivity”.

With “QVQLVESGGGLVQAGGSLRLSCAASGFTFRDYAMGWYRQAPGKERELVAAITRGGSTNYADSVKGRFTISRDNAKNTVYLQMNSLKPEDTAVYYCAATPSWRWHVFAEFNSWGQGTQVTVSS” as the sequence, how does the “polyreactivity (PSR sort gate)” value read?
The value was “high polyreactivity”.

For “QVQLVESGGGLVQAGGSLRLSCAASGFTFRDYAMGWYRQAPGKERELVAAITRRGGNTYYADSVKGRFTISRDNAKNTVYLQMNSLKPEDTAVYYCAARALSGHYDYWGQGTQVTVSS”, which “polyreactivity (PSR sort gate)” value is on record?
The value was “high polyreactivity”.

With “QVQLVESGGGLVQAGGSLRLSCAASGFTFRDYAMGWYRQAPGQERELVATITWRVGSTFYADSVKGRFTISRDNAKNTVYLQMNTLKPEDTADDYCAARWSTSYGPFDYWGQGTQVTVSS” as the sequence, how does the “polyreactivity (PSR sort gate)” value read?
The value was “low polyreactivity”.

With “QVQLVESGGGLVQAGGSLRLSCAASGFTFRDYVMGWYRQAPGKERELVAAISRSGASTYYADSVKGRFTISRDNAKNTVYLQMNSLKPEDTAVYYCAKTQAGYSPGTYYYWGQGTQVTVSS” as the sequence, how does the “polyreactivity (PSR sort gate)” value read?
The value was “high polyreactivity”.

With “QVQLVESGGGLVQAGGSLRLSCAASGFTFREYAMGWYRQAPGKERELVAAIDWSGGSTYYADSVKGRFTISRDNAKNTVYLQMNRLKPEDTAVYYCNVDFYDWYVYLWYVDYDYCGQGTQVTVSS” as the sequence, how does the “polyreactivity (PSR sort gate)” value read?
Its value is “high polyreactivity”.

With “QVQLVESGGGLVQAGGSLRLSCAASGFTFRFNAMGWYRHAPGKERELVAGITSGGTTNYAYSVKGRFTISRDNAKNTVYLHMNSLKPEDTAVYYCNAAWYRWKQRYDYWGQGTLVTVSS” as the sequence, how does the “polyreactivity (PSR sort gate)” value read?
The value was “low polyreactivity”.

With “QVQLVESGGGLVQAGGSLRLSCAASGFTFRFYAMGWYRQAPGKERELVATISSRGGRTYYADSVKGRFTISRDNAKNTVYLQMNSLKPEDTAVYYCAADQKSQYQGNYWGQGTQVTVSS” as the sequence, how does the “polyreactivity (PSR sort gate)” value read?
Its value is “high polyreactivity”.

Which “polyreactivity (PSR sort gate)” value does the source give for “QVQLVESGGGLVQAGGSLRLSCAASGFTFRGNAMGWYRQAPGKERELVAAISYIGGTTYYADSVKGRFTISRDNAKNTVYLQMNSLKPEDTAVYYCAADLYRSILKPDYDYWGQGTQVTVSS” here?
Its value is “high polyreactivity”.

With “QVQLVESGGGLVQAGGSLRLSCAASGFTFRGNAMGWYRQAPGKERELVAAITSSGGRTYYADSVKGRFTISRDNAKNTVYLQMNSLKPVDTAVYYCAARYAYPSRYYYWGQGTQGTVSS” as the sequence, how does the “polyreactivity (PSR sort gate)” value read?
Its value is “high polyreactivity”.

For “QVQLVESGGGLVQAGGSLRLSCAASGFTFRGYAMGWYRPAPGTERELVAAITKRGGSTYYADSVKGRFTISRDNAKNTVYLQMNSLKPEDTAVYYCAKTRRFGRYNAYWYRTYGYDYWGQGSQVTVSS”, which “polyreactivity (PSR sort gate)” value is on record?
Its value is “high polyreactivity”.

With “QVQLVESGGGLVQAGGSLRLSCAASGFTFRGYAMGWYRQAPGKERELVAAIRRGVGSTYYADSVKGRFTISRDNAKNTVYLQMTSLKPEDTAVYYCNKDNAVDRLPWFQVTYDYWGQGTQVTVSS” as the sequence, how does the “polyreactivity (PSR sort gate)” value read?
Its value is “low polyreactivity”.

With “QVQLVESGGGLVQAGGSLRLSCAASGFTFRGYAMGWYRQAPGKERELVAAISGSGGRTHYADSVKGRFTISRDNAKNTVYLQMNSLKPEDTAVYYCNAVPYSRPLGNNYWGQGTQVTVSS” as the sequence, how does the “polyreactivity (PSR sort gate)” value read?
Its value is “high polyreactivity”.

With “QVQLVESGGGLVQAGGSLRLSCAASGFTFRGYAMGWYRQAPGKERELVAAISRGGNTKYADSVKGRFTISRDNAKNTVYLQMNSLKPEDTAVYYCASYYFSSSHRYGYWGQGTQVTVSS” as the sequence, how does the “polyreactivity (PSR sort gate)” value read?
Its value is “high polyreactivity”.

Which “polyreactivity (PSR sort gate)” value does the source give for “QVQLVESGGGLVQAGGSLRLSCAASGFTFRINAMGWYRQAPGKERELVAAITWIGGSTYYADSVKGRFTISRDNAKNTVYLQMNSLKPEDTALYYCAADVYNRWWWRAYDYWGQGTQVTVSS” here?
The value was “high polyreactivity”.

Which “polyreactivity (PSR sort gate)” value does the source give for “QVQLVESGGGLVQAGGSLRLSCAASGFTFRKYAMGWYRQAPGKERELVAANTSGGGSTYYADSVKGRFTISRDNAKNTVYLQMNSLKPEDTAVYYCAAKRSGGQGQGYGYWGQGTQVTVSS” here?
Its value is “high polyreactivity”.

For “QVQLVESGGGLVQAGGSLRLSCAASGFTFRKYTMGWYRQAPGKERELVAAITNSGTSTYYADSVKGRFTISRDNAKNTVYLQMNSLKPEDTAVYYCARDNEPDYYSYPYDYWGQGTQVTVSS”, which “polyreactivity (PSR sort gate)” value is on record?
Its value is “low polyreactivity”.

With “QVQLVESGGGLVQAGGSLRLSCAASGFTFRLNAMGWYRQAPGPERELVAAITRSGGNTYYADSVKGRFTIPRDNAKNTVYLQMNSLKPEDTAVYYCAARYFYWFRPTEYYYWGQGTQLTVSS” as the sequence, how does the “polyreactivity (PSR sort gate)” value read?
Its value is “high polyreactivity”.

With “QVQLVESGGGLVQAGGSLRLSCAASGFTFRLYAMGWYRQAPGKERELVAAISWGGGSTYYADSVKGRFTISRDNAKNTLYLQMNSLKPEDTAVYYCAAYKYGYRYYYWGQGTLVTVSS” as the sequence, how does the “polyreactivity (PSR sort gate)” value read?
Its value is “high polyreactivity”.

Which “polyreactivity (PSR sort gate)” value does the source give for “QVQLVESGGGLVQAGGSLRLSCAASGFTFRLYTMGWYRQAPGKERELVAGISTSGGSTYYADSVKGRFTISRDNAKNTVYLQMNSLKPEDTAVYYCAAQAFTSYDYWGQGTQVTVSS” here?
Its value is “high polyreactivity”.

Which “polyreactivity (PSR sort gate)” value does the source give for “QVQLVESGGGLVQAGGSLRLSCAASGFTFRPNAMGWYRPAPAKERELVAAISGSGGSTYYADSVKGRFTISRDNAKNTVYLQMNSLKPEDTAVYYFAADSYYDGDYWGQGTQVTVSS” here?
The value was “low polyreactivity”.

With “QVQLVESGGGLVQAGGSLRLSCAASGFTFRQYAMGWYRQAPGKERELVAAISRSGSRTYYADSVKGRFTISRDNAKNTVYLQMNSLKPEDTAVYYCNAVFSTITGEYYWGQGTQVTVSS” as the sequence, how does the “polyreactivity (PSR sort gate)” value read?
The value was “high polyreactivity”.

For “QVQLVESGGGLVQAGGSLRLSCAASGFTFRRNAMGWYRQAPGKEMELVASISSRGGITYYADSVKGRFTISRDNAKNTVYLQMNSLNPEDTAVYYCAVRFSRYTSNWRQSYDYWGQGTQVTVSS”, which “polyreactivity (PSR sort gate)” value is on record?
Its value is “low polyreactivity”.

Which “polyreactivity (PSR sort gate)” value does the source give for “QVQLVESGGGLVQAGGSLRLSCAASGFTFRRNTMGWYRQEPGKERELVAAITQRGGSTYYADSVKGRFTISRDNAKNTVYLQMNSLKPEDTAVYYCAVDRHSYIYKYDYWGQGTQVTVSS” here?
The value was “high polyreactivity”.

For “QVQLVESGGGLVQAGGSLRLSCAASGFTFRRYAMGWYRQAAGKERELVASNSWRGGTTYYADSVKGRFTISRDNAKNTVYLQMNSLKPDDTAVYYCARGAATPPGYYSSGQGTQVTVSS”, which “polyreactivity (PSR sort gate)” value is on record?
Its value is “low polyreactivity”.

Which “polyreactivity (PSR sort gate)” value does the source give for “QVQLVESGGGLVQAGGSLRLSCAASGFTFRRYAMGWYRQAPGKERELVAAISIRGGRTYYADSVKGRFTISRDNAKNTVYLQMNSLKPEVTAVYYCAAAPVGYGKRFYYWGQGTQVTVSS” here?
The value was “high polyreactivity”.

With “QVQLVESGGGLVQAGGSLRLSCAASGFTFRRYAMGWYRQAPGKERELVAAITRNGGSTYYADSVKGRFTISRDNAKNTVYLQMNRLKPEDTAVYYCNAVLYTPVYDGFDSWGQGTQVTVSS” as the sequence, how does the “polyreactivity (PSR sort gate)” value read?
The value was “high polyreactivity”.

Which “polyreactivity (PSR sort gate)” value does the source give for “QVQLVESGGGLVQAGGSLRLSCAASGFTFRRYTMGWYRQARGKERELVAGITTSGGTYYADSVKGRFTISRDNAKNTVYLQMNSLKPEDTAVYYCAARIYYLYGMDYWGQGTQVTVSS” here?
Its value is “low polyreactivity”.

Which “polyreactivity (PSR sort gate)” value does the source give for “QVQLVESGGGLVQAGGSLRLSCAASGFTFRRYVMGWYRQAPGKERELVAAISQRGGSTYYADSVKGRFTISRDNAKNTVYLQMNSLKPEDTAVYYCNIDYAGELDYWGQGTQVTVSS” here?
Its value is “high polyreactivity”.

For “QVQLVESGGGLVQAGGSLRLSCAASGFTFRRYVMGWYRQAPGKERELVAAISQSGGSTYYADSVKGRFTISRDNAKNTVYLQMNSLKPEDTAVYYCAAAKVPYGWEQSDYWGQGTQVTVSS”, which “polyreactivity (PSR sort gate)” value is on record?
The value was “high polyreactivity”.

With “QVQLVESGGGLVQAGGSLRLSCAASGFTFRRYVMGWYRQAPGKERELVAAISQSGGSTYYADSVKGRFTISRDNAKNTVYLQMYSLKPEDTAVYYCAAVTSRYVLSTFYYWGQGTQVTVSS” as the sequence, how does the “polyreactivity (PSR sort gate)” value read?
Its value is “high polyreactivity”.

Which “polyreactivity (PSR sort gate)” value does the source give for “QVQLVESGGGLVQAGGSLRLSCAASGFTFRRYVMGWYRQAPGKERELVAAISQSGGSTYYADSVKGRFTISRDNAMNTVYLQMNSLKPEDTAVYYCAAAKVPYGWAQSDYWGQGTQVTVSS” here?
The value was “high polyreactivity”.

Which “polyreactivity (PSR sort gate)” value does the source give for “QVQLVESGGGLVQAGGSLRLSCAASGFTFRSNAMGWYRQAPGKERELVAAISSNGGRTYYADSVKGRFTISRDNAKNTVYLQMNSLKPEDTAVYYCAARGGYSQKRHDSWGQGTQVTVSS” here?
Its value is “high polyreactivity”.

With “QVQLVESGGGLVQAGGSLRLSCAASGFTFRSNMGWYRQAPGKEREFVAAITKSGGSTYYADSVKGRFTISRDNAKNTVYLQMNSLKPEDTAVYYCAARARYTTGYRIIYDYWGQGSQVTVSS” as the sequence, how does the “polyreactivity (PSR sort gate)” value read?
The value was “high polyreactivity”.

With “QVQLVESGGGLVQAGGSLRLSCAASGFTFRSYAMGWYRQAPGKERELVAAISSTGRTYYADSVKGRFTISRDNAKNTVYLQMNSLKPEDTAVYYCARNIPVSYYRYGYWGQGTQVTVSS” as the sequence, how does the “polyreactivity (PSR sort gate)” value read?
Its value is “high polyreactivity”.

For “QVQLVESGGGLVQAGGSLRLSCAASGFTFRSYTMGWYIQAPGKERELVATITWNGGSTYYADSVKGRFTISRDNAKNTVYLQMNSLKPEDTAVYYCAADPPWNFWNYYRMDYWGQGTQVTVSS”, which “polyreactivity (PSR sort gate)” value is on record?
Its value is “low polyreactivity”.

Which “polyreactivity (PSR sort gate)” value does the source give for “QVQLVESGGGLVQAGGSLRLSCAASGFTFRVNAMGWYRQAPGKERELVAAISSGGSTNYADSVKGRFTISRDNAKNTVYLQMNSLNPEDNAVYYCAKRFKYIYYWGQGTQVTVSS” here?
Its value is “high polyreactivity”.

Which “polyreactivity (PSR sort gate)” value does the source give for “QVQLVESGGGLVQAGGSLRLSCAASGFTFRVNAMGWYRQAPGKERELVAVISHSGGSTYYADSVKGRFTISRDNAKNTVYLQMNSLKPEDTAVYYCAKDRVVLYKYYRVDYWGQGTQVTVSS” here?
Its value is “low polyreactivity”.

Which “polyreactivity (PSR sort gate)” value does the source give for “QVQLVESGGGLVQAGGSLRLSCAASGFTFRVYAMGWYRQAPGKERELVAAITKRGGSTYYADSVKGRFTISRDNAKNTVYLQMNSLKPEDTAVYYCATENTPHYASHGYWGQGTQVTVSS” here?
The value was “high polyreactivity”.
